From PMC7003851

Key:
IRP1 wild-type [1] = molecular target: T1, IRP1 wild-type (Homo sapiens, UniProt P21399 1-889); experiment: EMSA
T1 sequence: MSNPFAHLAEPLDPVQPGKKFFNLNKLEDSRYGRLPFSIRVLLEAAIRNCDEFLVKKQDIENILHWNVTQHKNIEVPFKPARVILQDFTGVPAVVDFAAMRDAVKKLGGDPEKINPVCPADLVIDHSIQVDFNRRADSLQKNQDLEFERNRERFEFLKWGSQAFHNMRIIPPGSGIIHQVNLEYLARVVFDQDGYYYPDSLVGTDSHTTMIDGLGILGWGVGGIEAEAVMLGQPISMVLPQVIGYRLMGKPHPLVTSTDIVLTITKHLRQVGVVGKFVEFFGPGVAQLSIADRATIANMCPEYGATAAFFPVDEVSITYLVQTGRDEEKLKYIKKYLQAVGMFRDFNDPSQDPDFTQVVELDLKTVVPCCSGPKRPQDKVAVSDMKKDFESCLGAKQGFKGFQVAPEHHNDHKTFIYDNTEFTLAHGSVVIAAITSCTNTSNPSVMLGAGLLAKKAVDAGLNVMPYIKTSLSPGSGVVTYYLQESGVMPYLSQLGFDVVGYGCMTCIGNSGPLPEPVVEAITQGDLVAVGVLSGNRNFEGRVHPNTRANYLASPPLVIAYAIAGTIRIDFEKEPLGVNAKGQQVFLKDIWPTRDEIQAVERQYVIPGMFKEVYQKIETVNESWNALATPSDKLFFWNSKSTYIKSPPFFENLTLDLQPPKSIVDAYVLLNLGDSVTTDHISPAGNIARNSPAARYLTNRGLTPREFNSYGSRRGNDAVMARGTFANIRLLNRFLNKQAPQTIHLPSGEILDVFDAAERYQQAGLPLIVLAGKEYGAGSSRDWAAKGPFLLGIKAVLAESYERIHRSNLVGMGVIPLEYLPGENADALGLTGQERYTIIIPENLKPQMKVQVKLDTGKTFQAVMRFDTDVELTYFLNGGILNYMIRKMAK

IRP1 wild-type [2] = molecular target: T1, IRP1 wild-type; experiment: EMSA; remark: listed apart in the source

| Binder | Kd (IRP1 wild-type [1]) [nM] | binding signal (IRP1 wild-type [2]) |
| --- | --- | --- |
| UUUUUGUUUCCUGCUUCAACAGUGCUUGGACGGAAC (structured_RNA) [wt-IRE (FTH-IRE)] | 18 ± 5 |  |
| UUUUUGUUUCCUGCUUCAAAGUGCUUGGACGGAAC (structured_RNA) [IRE-ΔC] |  | ~5 fold unbound RNA fraction vs wt-IRE |
